The text below walks through data of paper PMC5615036, “Crystal structure of an ASCH protein from Zymomonas mobilis and its ribonuclease activity specific for single-stranded RNA”.

The series concerns the target T1, ZmASCH wild-type (Zymomonas mobilis ZM4, UniProt Q5NP14 1-148).
T1 sequence: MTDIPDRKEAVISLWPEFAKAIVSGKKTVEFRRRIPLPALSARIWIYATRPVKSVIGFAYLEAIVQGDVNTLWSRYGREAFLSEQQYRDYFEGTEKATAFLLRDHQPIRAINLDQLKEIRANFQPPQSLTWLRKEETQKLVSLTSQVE
Put plainly: EMSA; 10 mM Mg2+; bound, not degraded; EMSA: 20 mM Tris-HCl pH 7.5, 10 mM Mg acetate, 300 mM KCl, 100 ng/uL BSA, 100 ng/uL heparin, 30 min at 310 K; nuclease assay: 20 mM Tris-HCl pH 8.0, 100 mM KCl, 100 ng/uL BSA, with or without 10 mM divalent metal, 310 K. Particulars: protein: recombinant; tags: N-terminal His6; label: 5'-32P; single strand. (In EMSA bound probe runs differently from free probe, usually more slowly.)

Consider ATCAGCTCGTCACAACATTACTTCATCAAC (ssDNA) [ssDNA(30mer)], for which the binding result is reported as “binds”.
